Laboratory results taken from the supplement of paper PMC9112550, “Optimization of the antimicrobial peptide Bac7 by deep mutational scanning” (BMC Biology, 2022).

test system: Escherichia coli TOP10; experiment: shrunken log2 fold change of peptide-encoding DNA abundance (4.5 h post-induction vs induction); higher = less antimicrobial activity (less host growth inhibition); conditions: time post-induction: 4.5 h; library: site-saturation at positions 5, 18, 19, 20
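Further: peptides expressed intracellularly from a pBAD plasmid library in pooled LB shake-flask culture, induced with 0.3% L-arabinose, DNA abundance read by NGS, three biological replicates, DESeq2 with apeglm shrinkage.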

| Sequence | shrunken log2 fold change |
| --- | --- |
| RRIRKRPPRLPRPRPRPPGYPRP | 0.176 |
| RRIRARPPRLPRPRPRPEKDPRP | 0.366 |
| RRIRQRPPRLPRPRPRPLRCPRP | 0.244 |
| RRIRLRPPRLPRPRPRPSYIPRP | -0.427 |
| RRIRNRPPRLPRPRPRPDSEPRP | -0.0671 |
| RRIRRRPPRLPRPRPRPYVSPRP | -0.00885 |
| RRIRARPPRLPRPRPRPQRIPRP | 0.177 |
| RRIRARPPRLPRPRPRPRWSPRP | 0.53 |
| RRIRWRPPRLPRPRPRPIWFPRP | 1.96 |
| RRIRSRPPRLPRPRPRPQKLPRP | 0.0126 |
| RRIRGRPPRLPRPRPRPFMYPRP | 0.345 |
| RRIRPRPPRLPRPRPRPWMCPRP | -0.366 |
| RRIRMRPPRLPRPRPRPCAFPRP | 0.121 |
| RRIRYRPPRLPRPRPRPREFPRP | 0.163 |
| RRIRGRPPRLPRPRPRPIEMPRP | 0.0736 |
| RRIRERPPRLPRPRPRPPNYPRP | -0.201 |
| RRIRVRPPRLPRPRPRPADFPRP | 0.0696 |
| RRIRARPPRLPRPRPRPGSTPRP | 0.247 |
| RRIRKRPPRLPRPRPRPEFKPRP | 0.165 |
| RRIRGRPPRLPRPRPRPVPWPRP | 0.526 |
| RRIRARPPRLPRPRPRPAECPRP | 0.041 |
| RRIRVRPPRLPRPRPRPGIWPRP | 0.339 |
| RRIRLRPPRLPRPRPRPIEDPRP | 0.0562 |
| RRIRSRPPRLPRPRPRPLRCPRP | 0.435 |
| RRIRSRPPRLPRPRPRPESNPRP | -0.126 |

| Sequence | shrunken log2 fold change |
| --- | --- |
| RRIRDRPPRLPRPRPRPVMYPRP | -0.166 |
| RRIRARPPRLPRPRPRPAIVPRP | -0.123 |
| RRIRDRPPRLPRPRPRPCAFPRP | 0.822 |
| RRIRFRPPRLPRPRPRPPAWPRP | 0.354 |
| RRIRIRPPRLPRPRPRPCRHPRP | -0.159 |
| RRIRTRPPRLPRPRPRPFSQPRP | -0.0652 |
| RRIRLRPPRLPRPRPRPHRCPRP | -0.0644 |
| RRIRNRPPRLPRPRPRPPARPRP | 0.746 |
| RRIRGRPPRLPRPRPRPHRKPRP | 0.101 |
| RRIRHRPPRLPRPRPRPFSAPRP | -0.186 |
| RRIRPRPPRLPRPRPRPDLTPRP | 0.168 |
| RRIRSRPPRLPRPRPRPEGCPRP | 0.0128 |
| RRIRSRPPRLPRPRPRPATDPRP | 0.157 |
| RRIRLRPPRLPRPRPRPHCNPRP | -0.363 |
| RRIRMRPPRLPRPRPRPNCSPRP | 0.135 |
| RRIRARPPRLPRPRPRPDQPPRP | 0.0452 |
| RRIRDRPPRLPRPRPRPECAPRP | 1.58 |
| RRIRFRPPRLPRPRPRPMMLPRP | -0.139 |
| RRIRDRPPRLPRPRPRPVKTPRP | 0.0145 |
| RRIRNRPPRLPRPRPRPGNQPRP | -0.00674 |
| RRIRFRPPRLPRPRPRPWCVPRP | -0.384 |
| RRIRNRPPRLPRPRPRPPHAPRP | 0.22 |
| RRIRRRPPRLPRPRPRPIPPPRP | 0.452 |
| RRIRFRPPRLPRPRPRPEKMPRP | 0.0434 |
| RRIRYRPPRLPRPRPRPAHPPRP | -0.0595 |

| Sequence | shrunken log2 fold change |
| --- | --- |
| RRIRSRPPRLPRPRPRPMHAPRP | 0.562 |
| RRIRYRPPRLPRPRPRPAHSPRP | -0.0299 |
| RRIRDRPPRLPRPRPRPHGSPRP | 0.208 |
| RRIRFRPPRLPRPRPRPMCFPRP | -0.256 |
| RRIRLRPPRLPRPRPRPCMAPRP | -0.311 |
| RRIRLRPPRLPRPRPRPVYEPRP | 0.788 |
| RRIRLRPPRLPRPRPRPQWCPRP | -0.282 |
| RRIRSRPPRLPRPRPRPYPKPRP | -0.119 |
| RRIRSRPPRLPRPRPRPIKTPRP | 0.000501 |
| RRIRRRPPRLPRPRPRPFTTPRP | -0.0176 |
| RRIRHRPPRLPRPRPRPFIMPRP | -0.505 |
| RRIRYRPPRLPRPRPRPFPLPRP | -0.109 |
| RRIRTRPPRLPRPRPRPSVMPRP | -0.372 |
| RRIRRRPPRLPRPRPRPGSAPRP | 0.378 |
| RRIRPRPPRLPRPRPRPWQQPRP | -0.0467 |
| RRIRARPPRLPRPRPRPVARPRP | 0.647 |
| RRIRPRPPRLPRPRPRPCTLPRP | -0.029 |
| RRIRNRPPRLPRPRPRPQARPRP | -0.0332 |
| RRIRTRPPRLPRPRPRPCCCPRP | 0.276 |
| RRIRCRPPRLPRPRPRPCGWPRP | 0.456 |
| RRIRGRPPRLPRPRPRPSFHPRP | -0.17 |
| RRIRWRPPRLPRPRPRPVMMPRP | -0.385 |
| RRIRSRPPRLPRPRPRPGRSPRP | 0.109 |
| RRIRWRPPRLPRPRPRPSACPRP | 0.382 |
| RRIRSRPPRLPRPRPRPTYVPRP | -0.098 |
